Measured values published in a protein production outcome set (Wang et al. 2014).

Test: label from the status in PepcDB records
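Also: failed if final PepcDB status was selected cloned or expressed and not failed if soluble or beyond.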

Sequence | protein production
MLSALIWGPIFGAILIAIIPNPDHDCYSRKIALGIMVAMAGLSVLLAGQFNISDPQMQFVEYYPWLPSLGLNYHLGVDGLSLPLLLLNSALVVIAIFSTNTEIERPRFYYALLLLLSGGVAGAFLAQDLLLFFLFFELEIIPLYFLIAIWGGQRRGYAAMKFLLYTALSGFLVLVSFLGWFWLTKAPNFDYNPSLADALPVKTQMLLLLPLLLGLGIKIPIFPFHTWLPDAHVEASTPVSVLLAGVLLKLGTYGLLRFGLGLYLEAWVEFAPYLATLAAISALYGASCAIAQKDMKKVVAYSSIAHMGYILLAAAAATRLSVTAASAQMVSHGIISALLFLLVGVVYKKTGSRDVDKLQGLLTPERGLPITGSLMILGVMASAGIPGMVGFIAEFLVFRGSFPIFPTQTLLCLIGSGLTAVYFLLMINRVFFGRLTMELSHLPKVRWQEQIPAIALAVVIIALGIQPHWLTQWSEPQTAVLLTGHPDLVSVPAPPRIEIEVKELGEV | failed
MTVVTFLAFLIPILVLAAIGGVVWWFWMKLRYKTARSNEALIIAGPKLGDPKKETNIFTDNEGRSIKIIRGGGHLLKMHQTATPVDLTSFQLKLTTPRVFTNGGVPIIADAVAMVTVSDTLKGIAIYAEQFLGKEQKEIESEISEVLNANLRAILSKMTVEQINEDREGFNLQVTEVAQKQLDSMGFKITSLGLQDLRDADKENGYLENLGRPRIAEVRKRAEIAESNSDKETRIHKANNDKEAKEQEFQRKIEIAAALKEKDLKDAAIKEETERARAKAEQSYLLEKAKLDKEVQEEELQLLARKKEEELRIKHLERERAVKLEEEEAKVRRAKADADFYETTRKAEADAEKARIEGETKARIKREEGLAEAEVIRKRGEAEAEAKRLLAEAIAKHGEVIIIEKLIEMLPQFAESISKPLSNIESVKIIDTGNGNGVSSYSKSITNTMAQIQEPLKELTGLDVSKLLTDLVNRGNTHTVVRTEAVPTDHHGSPVAASTESEEPVEDQPLENSDSEEKLEHHHHHH | not failed
GGRRWNWVQSWPVWKYFKEYFPICLVKTQDLDPGHNYIFGFHPHGIFVPGAFGNFCTKYSDFKKLFPGFTSYLHVAKIWFCFPLFREYLMSNGPVSVSKESLSHVLSKDGGGNVSIIVLGGAKEALEAHPGTFTLCIRQRKGFVKMALTHGASLVPVFSFGENDLYKQINNPKGSWLRTIQDAMYDSMGVALPLIYARGIFQHYFGIMPYRKLIYTVVGRPIPVQQILNPTSEQIEELHQTYLEELKKLFNEHKGKYGIPEHETLVFK | failed
MYMKHIENGTRIEGEYIKNKVIQYNMSILTDEVKQPMEEVSLVVKNEEGKIFGGVTGTMYFYHLHIDFLWVDESVRHDGYGSQLLHEIEGIAKEKGCRLILLDSFSFQAPEFYKKHGYREYGVVEDHPKGHSQHFFEKRL | not failed
MRMQRQGCVQAQIAGQSGMLTYWDNRRDMPMIASHRWTALFVLVILMPLPAFAGTPEGGYRQPPEPLLSVMRAPLNPSPRPDPTGRTLLLVQRTQYPPIARVAEPYLKLAGVRVEPRTHSRHDMSNGYGIRSCLEGFSLVDIASGKQTAVSLPAGACPALPVWSPDGRRFAFNNTAADHVELWVGDVATGQVRKIDGVQLNPVLGGEIQWLGGSSTLLLKTVPQDLGPAPRKAAVPPGPEVKETIQGKGESSTYEARDTLSSPQDEALFTYYATAQLLTVDAATGSQRKLGTPAVYSNVDGAPDGRHVLVERLKPPYSYVTTYARFAHDVAVLDLETGNERVLANLPVADRVPVQGVPTGPRAYAWRANQPATLVWAEALDGGDWKTSVPARDTLMTLAAPFTAKPRALARVQQRYAGLSWFAEGGQALLDEYDENRHWRRTTLVDADRPGAGERVLFDLSTDDLYADPGLPEMRVLANGQAVLREAQGALFLSGQGASPAGDRPFLDRYTLATGKSQRLFRSDAHVDEVFFGFAGDETSRLLTWHQSLTDPPNVYVRTLGEPLPAPAAGEAAFASTATPVTHFADPTPLVRQIKKRLVSYKRKDGVDLSFTLYTPPGYKEGTRVPAILYAYPLDYADPSKAGQVSGASERDFTRLNYYQLLLLAGYAIIDDAAFPIVGDPKTAYDTYLQQLVDDATAAVDKAVELGVVDRQRIGVTGHSHGALMTANLLAHTDLFRAGAATSGSYNKTLTPFGFQSERRSFWKAPDVYAQASAFFHADKINEPLLIVHGMDDANPGTETTQAPRLFQAIRGNGGTARLVLLPFEPHWYSARESNEDLVAEMLEWFDRYVKNAPPRDAQHANDVR | failed
MNLVKFTLDKANSQAYSSEQTTTEVSNMTIENGVRVLAGSMVLLSVILTWFVHPNFLWLTVFVGVNLIQSAFTGFCPAAFFLKKLGLR | failed
MEAWIFEIMRAVGRFFLHPAVYVFLISSIFVGYLRMLRERKDFSFKVYDIWFELRTSLLAGVKYGLIVSIITIGLGLVVSKASLWAILLWTLLFGLTAMYRYLSAAYTFSVAIVCVLLSSKLPVSFLQLGEGEENTIVSLAILLGIMLVVEGLLISKNAVGYSTPKIRKGKRGLKIGLHESKRLWIVPIFILVPGEAVTQFISWWPVVSIGSHTYSLFLVPFLIGFMRRIRSYEPTEALLFTGRRVYGLAGLVLVLGIASYWWHVLAIIAMGVAMLGRFTISMQEKIADETRPAYFAARNDGLVVLDTIPNTIGAELNLLPGEMITKVNGVIPRSAEEFYDALQTKTTGAFCKLEVLDTNGELRLAQTALYAGGHHELGIVFVQQEHEWDSEAM | failed
MSFKDLREFIDHLEQKGRLKRITHPVDPAYEMTEISDRTLRAGGPALLFENPIGYNVPVLTNLFGTPERVAIGMGREDVKELREVGKLLAYLKEPEPPKGFKDALEKLPVFKQVLNMPAKRLRKAPCQDIVWQGDEVDLDKIPVMSCWAEDVAPLLTWGLTVTKGPNKKRQNLGIYRQQKIAKNKIIMRWLAHRGGALDLRDWMETNPGKPFPVSVAFGADPATILGAVTPVPDTLSEYAFAGLLRGSKTEVVKSISNDLEVPASAEIVMEGYIDPNEFADEGPYGDHTGYYNEKEKHHVFTITHITMRKDPIYHSTYTGRPPDEPAVLGVALNEVFVPILQKQFPEIEDFYLPPEGCSYRMAVVTMKKQYPGHAKRVMMGVWSFLRQFMYTKFVIVCDESVNARDWNDVVKAMTEHMDPVRDTLMIDNTPIDSLDFASPVVGLGSKMGLDATIKWDAELATRPQISKQDSKVITEADLESLKQQRPEIIDIYLPPTTNNRFAVVTMKKDQAGQSQALMEYLWDFFAQYTDNKFVILCDEDVNARDWNDIIWAVTTRMDPDRDTTRVSGKAESSSKLGLDATNKFESEVTREWGTPIKKDPKLVAKVDEIWDQLGIL | failed
MHVNPLISVARSKASALFAALALVLVVTLTLAGCSSDKSGETTAEAKKDPSSIRVVALDWRYEEILHALGITPVGIVEIGKSKEPQTLKGELEGVTSVGQAKQPNLEVIQSLEPDLILASPTRQAAIMDQLKEIAPTHAYGDTSYTEVLDAMDDIATKVGAEDKAKEVRTRIESKIAQAKNKVEPGTRTALIGWSKNTLYTWVKDSFAGSLLTAAGYEYGYDGEKSAIESKTDVAELTGDKLPEMKLDVMYLYNDIEGFRSSPYADVVSNIVDVEQDTWSRSRGPLAAEAMLDQIINS | failed
MTERPSLSPREARDRYLAHRQTDAADASIKSFRYRLKHFVEWAEERDITAMRELTGWKLDEYETFRRGSDVSPATLNGEMQTLKNWLEYLARIDVVDEDLPEKVHVPTIPDGEESNDEMLEPEAAKKLLRAMRSDPTHYGTVKHALLELLWFTGCRVGAARSLDLRDYHSGERFVTFHHREGTPLKNDSDGERAVGLPEAVCEVLDYYIEHHRESSHDDHGRKPLFTTTQGRASENTARVWTYLATQPCLHGPCPHGKERETCSYLHIHSASKCPSSLSPHRIRTGSITWQRDCGLPAEVVSERVNATLEVIEKHYDQATKRQRLEERRRPYINNLELDLEADS | failed
MVKRTSHKQASCPVARPLDVIGDGWSMLIVRDAFEGLTRFGEFQKSLGLAKNILAARLRNLVEHGVMVAVPAESGSHQEYRLTDKGRALFPLLVAIRQWGEDYFFAPDESHVRLVERDSGQPVPRLQVRAGDGSPLAAEDTRVSRD | not failed
MTEKKIDFKKEEKKFYAPKRKPERIFVPEMNFLMVDGKGDPDGEEYQKAVQSLYAIAYTIKMSKMGETRLDGYSDFVVPPLEGFWWSEGKFDLKDRDAWLWTSILRQPDFVTEEVLEWAKEVARKKKPDVDTSRVKLVRFEEGECVQMMHVGPFSEEVHTVAEMHQFMETEGLRNDTGAIRKHHEIYLSDPRKANPEKMKTILRLPVS | not failed
MRQIPQNHIHTRSTPFWNKETAPAGIFERHLDKGTRPGVYPRLSVMQGAVKYLGYADEHCSEPEEIMVINAGEFGVFPPEKWHNIEVMTDDTYFNIDFFVAPEVLMEGATSRKVIHAGRE | failed
MSSSREENVYLAKLAEQAERYEEMVEFMEKVAKTVDTDELTVEERNLLSVAYKNVIGARRASWRIISSIEQKEESRGNDDHVSIIKDYRGKIETELSKICDGILNLLDSHLVPTASLAESKVFYLKMKGDYHRYLAEFKTGAERKEAAESTLVAYKSAQDIALADLAPTHPIRLGLALNFSVFYYEILNSPDRACSLAKQAFDEAISELDTLGEESYKDSTLIMQLLRDNLTLWNSDINDEAGGDEIKEASKHEPEEGKPAETGQ | failed
MDYATNCASLPKWHKVPLLSVCIPAYNRPQGLVAAVRSVVAALPREYHDQVEIVITDDSATRTAVDDLLAPWSGHWHYQHNAQRLGMVANWNTSLAKACGEFILLLHDDDYLLPQGITTILATLSQYGSQFDVFLFGVHLVDSHQRCLRRQIPRRQEWLSPAQALRQLLRHSSLVRFPALIWRRSLLDAVGYFDPTYGEATDLYQWLRFFAQKGVYTVPCATAAYRIHDQALTMGMFQAQTLATLGRIFAAAADLSLLSPAELRHCQCDFFHQFILAGTWRFLRRRQWQRAQAVYQLFDLPEVIALGRSRRWQGLRWLLGSWLWLLQQLSS | failed
MEGLQRSTISFRRQGSSGIVFDDRLIAELNKSGNNEQKDESQRDEQPKPMSESSEQVKPIDEKDKLRPIKTGGGAPGGIERSRSNGGGAQRHHRTTGRVSPAVDPPSPRISSCGCCSAFGKNPPGKKVNPRKRPPKRRSR | failed
TSTFYELFPKTFPKKLPIWTIDQSRLRKEYRQLQAQHHPDMAQQGSEQSSTLNQAYHTLKDPLRRSQYMLKLLRNIDLTQEQTSNEVTTSDPQLLLKVLDIHDELSQMDDEAGVKLLEKQNKERIQDIEAQLGQCYNDKDYAAAVKLTVELKYWYNLAKAFKDWAPGKQLEMNH | not failed
MIEWQLAELIPHAGDMILIDQVLDFDEEQINTRLTVRADGLFNQPDGSLPAWLGIELMAQSVAAYAGCQARSKGEAVKLGFLLGSRKFDCNVARFPAGSELHIHAIRSLQDDSGMGVFECTLTGPDITALARLNVYCPPNTADYLAEGAPALEHHHHHH | not failed
TTLQVREQTARRTLAALGYNECVTYSFIDEAAARLFGGGSEAVRVENPISSEMTHLRPDLLPGLLRAAARNQARGFADIALCEIGPVFAGGEPGEQQLQATGLLVGAVAPRDPFGSRRPVDVYDAKADAEAVLAAVGAPARMQISRKVPGWWHPGRSGIVGLGPNVLATFGEVHPRILREMDVKGPAVAFTVLVANVPLPKVKTPTRPALKL | failed
MIYLFSHAGLRDLRDFIDRSTLFAFDLDGTLAPIVSDPAGIMIPPDVHERLVRLNGTASVAVVTGRARVDAARHLGFAPRFLVGNHGAEGLPGADAAEREFIGLCRGWMTQLGELLPEGEGTGIVMEDKSATLSLHYRNAPDRENAHQRILAAVSRLLPAPRRVSGKLVENLVPAAAPHKGDALRCIMRHLGCARALFVGDDVTDEDVFRLGDEAIFGIRVGNSGGSAARYFIRGQDEMAPLLDEILAVL | failed
MPIIKSSRVNIGRFTIGGSIPIVIISIFDHDAKSLTEKFETKKLSDKNLYEIRFDLFDKVNIDEELEIIRALDEMDIDYIFTYRGHDPEKIYETAITKMVPAVDMDLSLLNKVNRRSPDTRIMVSYHTDSSKDMIEKLDEMLKANADIVKVACNYKDEKNFFKDLIEIAQRKEISGKPVLFIPMGKSFLRVISAYYVSDMVYAKYDKETAMGQPDPDYYNKAFSLFNYIG | failed
